Key:
[1] = target: CD4-Sho1-SH3-I49A (MYTH bait) (S. cerevisiae); assay: two-hybrid
[2] = target: CD4-Sho1-SH3-ΔAY (MYTH bait) (S. cerevisiae) (UniProt P40073); assay: two-hybrid
UniProt P40073, sequence (P40073 298-367, stated change not applied): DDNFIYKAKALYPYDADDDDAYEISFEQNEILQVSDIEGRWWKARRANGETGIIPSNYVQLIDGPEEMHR

Row | Molecule | fold change relative to wildtype Sho1p SH3 (β-galactosidase, Miller units) [1] | fold change relative to wildtype Sho1p SH3 (β-galactosidase, Miller units) [2]
1 | Fps1-N (N-terminal soluble domain of Fps1p, NubG MYTH prey) (from UniProt P23900 1-255) (domain or fragment) | 0.2 fold | 0.3 fold
2 | NubG-Pbs2 (full-length Pbs2p MYTH prey) (natural protein) MEDKFANLSLHEKTGKSSIQLNEQTGSDNGSAVKRTSSTSSHYNNINADLHARVKAFQEQRALKRSASVGSNQSEQDKGSSQSPKHIQQIVNKPLPPLPVAGSSKVSQRMSSQVVQASSKSTLKNVLDNQETQNITDVNINIDTTKITATTIGVNTGLPATDITPSVSNTASATHKAQLLNPNRRAPRRPLSTQHPTRPNVAPHKAPAIINTPKQSLSARRGLKLPPGGMSLKMPTKTAQQPQQFAPSPSNKKHIETLSNSKVVEGKRSNPGSLINGVQSTSTSSSTEGPHDTVGTTPRTGNSNNSSNSGSSGGGGLFANFSKYVDIKSGSLNFAGKLSLSSKGIDFSNGSSSRITLDELEFLDELGHGNYGNVSKVLHKPTNVIMATKEVRLELDEAKFRQILMELEVLHKCNSPYIVDFYGAFFIEGAVYMCMEYMDGGSLDKIYDESSEIGGIDEPQLAFIANAVIHGLKELKEQHNIIHRDVKPTNILCSANQGTVKLCDFGVSGNLVASLAKTNIGCQSYMAPERIKSLNPDRATYTVQSDIWSLGLSILEMALGRYPYPPETYDNIFSQLSAIVDGPPPRLPSDKFSSDAQDFVSLCLQKIPERRPTYAALTEHPWLVKYRNQDVHMSEYITERLERRNKILRERGENGLSKNVPALHMGGL | – | 0.5 fold
